# B1: Ubiquitin carboxyl-terminal hydrolase BAP1 (Mus musculus), Q99PU7 (parent)
# chain: MNKGWLELESDPGLFTLLVEDFGVKGVQVEEIYDLQSKCQGPVYGFIFLFKWIEERRSRRKVSTLVDDTSVIDDDIVNNMFFAHQLIPNSCATHALLSVLLNCSNVDLGPTLSRMKDFTKGFSPESKGYAIGNAPELAKAHNSHARPEPRHLPEKQNGLSAVRTMEAFHFVSYVPITGRLFELDGLKVYPIDHGPWGEDEEWTDKARRVIMERIGLATAGEPYHDIRFNLMAVVPDRRIKYETRLHVLKVNRQTVLEALQQLIRVTQPELIQTHKSQESQLPEESKPASSKSPLGLEAGRTPVASECTQTDGAEEVAGSCPQTTTHSPPSKCKLVVKPPGSSLNGVPPNPAPIVQRLPAFLDNHNYAKSPMQEEEDLAAGVGRSRVPVRAPQQYSEDEDDYEDEDEDVQNTNPAIRYKRKGTGKPGSLSNSSDGQLSVLQPNTINVLTEKLQESQKDLSVPLSIKTSSGAGSPAVAVPTHSQPSPTPSNESTDTASEIGSAFNSPLRSPIRSANPTRPSSPVTSHISKVLFGEDDSLLRVDCIRYNRAVRDLGPVISTGLLHLAEDGVLSPLALTEGGKGSSPSTRSSQGSQGSSGLEEKEVVEVTESRDKPGLNRSSEPLSGEKYSPKELLALLKCVEAEIANYEACLKEEVEKRKKFKIDDQRRTHNYDEFICTFISMLAQEGMLANLVEQNISVRRRQGVSIGRLHKQRKPDRRKRSRPYKAKRQ
# Variants of: B1
# Settings: with brca1_human BRCA1, P38398
# brca1_human BRCA1, P38398, sequence (P38398 whole entry, looked up): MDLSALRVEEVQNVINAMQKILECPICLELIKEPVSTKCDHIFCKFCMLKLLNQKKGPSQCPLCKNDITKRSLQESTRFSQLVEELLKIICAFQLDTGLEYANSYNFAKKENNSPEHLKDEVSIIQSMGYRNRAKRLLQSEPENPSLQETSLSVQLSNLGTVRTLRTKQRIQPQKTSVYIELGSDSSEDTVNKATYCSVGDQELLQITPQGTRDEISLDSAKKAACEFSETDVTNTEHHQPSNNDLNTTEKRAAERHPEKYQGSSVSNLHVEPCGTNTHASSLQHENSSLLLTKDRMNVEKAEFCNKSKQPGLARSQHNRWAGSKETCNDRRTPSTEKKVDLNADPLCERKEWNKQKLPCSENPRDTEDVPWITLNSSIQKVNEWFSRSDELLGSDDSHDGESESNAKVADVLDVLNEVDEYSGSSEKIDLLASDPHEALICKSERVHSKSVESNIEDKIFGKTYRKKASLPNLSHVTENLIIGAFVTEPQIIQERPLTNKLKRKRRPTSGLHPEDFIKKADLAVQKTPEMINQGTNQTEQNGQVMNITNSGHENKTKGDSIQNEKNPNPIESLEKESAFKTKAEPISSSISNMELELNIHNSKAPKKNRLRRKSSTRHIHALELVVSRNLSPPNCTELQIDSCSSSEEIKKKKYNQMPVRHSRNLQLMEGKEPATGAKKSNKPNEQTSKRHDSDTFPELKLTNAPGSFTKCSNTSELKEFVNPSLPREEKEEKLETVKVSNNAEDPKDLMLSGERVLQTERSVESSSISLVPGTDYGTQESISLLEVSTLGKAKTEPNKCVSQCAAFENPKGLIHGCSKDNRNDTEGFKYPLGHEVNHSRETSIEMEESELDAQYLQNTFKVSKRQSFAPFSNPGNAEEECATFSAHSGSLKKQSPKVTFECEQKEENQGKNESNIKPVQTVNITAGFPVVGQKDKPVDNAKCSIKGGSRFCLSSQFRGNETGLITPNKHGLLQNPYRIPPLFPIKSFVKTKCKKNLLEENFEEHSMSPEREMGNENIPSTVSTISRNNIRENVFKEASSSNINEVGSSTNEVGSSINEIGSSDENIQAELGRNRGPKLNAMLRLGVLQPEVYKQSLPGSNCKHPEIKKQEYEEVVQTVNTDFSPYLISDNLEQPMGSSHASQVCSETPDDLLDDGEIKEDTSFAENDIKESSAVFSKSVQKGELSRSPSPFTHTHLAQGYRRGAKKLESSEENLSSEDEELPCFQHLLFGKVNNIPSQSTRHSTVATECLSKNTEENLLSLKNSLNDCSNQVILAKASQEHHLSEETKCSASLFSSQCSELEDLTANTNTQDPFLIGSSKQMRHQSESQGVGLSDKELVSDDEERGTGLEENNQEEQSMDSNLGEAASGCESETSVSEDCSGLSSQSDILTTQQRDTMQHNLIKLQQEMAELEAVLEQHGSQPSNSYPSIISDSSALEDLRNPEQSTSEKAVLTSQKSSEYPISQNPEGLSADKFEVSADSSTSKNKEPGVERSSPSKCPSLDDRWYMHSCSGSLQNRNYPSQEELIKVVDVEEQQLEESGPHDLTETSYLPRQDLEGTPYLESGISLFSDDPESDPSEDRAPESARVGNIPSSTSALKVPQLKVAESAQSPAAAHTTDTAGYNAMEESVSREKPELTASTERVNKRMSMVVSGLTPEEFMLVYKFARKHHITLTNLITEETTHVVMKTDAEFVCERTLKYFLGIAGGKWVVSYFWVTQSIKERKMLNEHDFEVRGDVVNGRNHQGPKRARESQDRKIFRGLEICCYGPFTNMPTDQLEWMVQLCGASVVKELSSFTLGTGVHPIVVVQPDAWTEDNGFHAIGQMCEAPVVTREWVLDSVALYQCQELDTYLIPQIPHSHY
row,Variant,effect of a mutation on the interaction
1,L690P,disrupting interaction
